# Data as given in IntAct's records for PubMed 14871493.
# Target: narb_syne7 narB (UniProt P39458)
# Sequence (P39458 whole entry): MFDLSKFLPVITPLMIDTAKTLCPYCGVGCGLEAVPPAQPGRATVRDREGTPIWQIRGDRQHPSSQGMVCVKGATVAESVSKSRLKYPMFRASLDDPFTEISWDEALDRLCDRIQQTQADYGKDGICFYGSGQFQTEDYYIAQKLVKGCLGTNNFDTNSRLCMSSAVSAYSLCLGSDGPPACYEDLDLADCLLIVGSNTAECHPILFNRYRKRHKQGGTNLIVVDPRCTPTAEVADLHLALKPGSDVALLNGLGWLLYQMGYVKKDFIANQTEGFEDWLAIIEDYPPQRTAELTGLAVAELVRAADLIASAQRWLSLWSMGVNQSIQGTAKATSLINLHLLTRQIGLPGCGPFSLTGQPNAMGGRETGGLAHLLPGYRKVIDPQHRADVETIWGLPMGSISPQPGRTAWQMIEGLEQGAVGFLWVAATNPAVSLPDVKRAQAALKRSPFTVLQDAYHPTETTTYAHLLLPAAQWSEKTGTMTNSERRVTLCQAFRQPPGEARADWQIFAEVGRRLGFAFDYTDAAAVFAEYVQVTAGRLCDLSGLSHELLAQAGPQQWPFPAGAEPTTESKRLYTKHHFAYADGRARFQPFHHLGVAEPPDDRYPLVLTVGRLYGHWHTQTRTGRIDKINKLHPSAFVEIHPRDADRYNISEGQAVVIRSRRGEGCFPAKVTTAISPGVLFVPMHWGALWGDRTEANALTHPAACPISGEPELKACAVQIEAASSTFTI
# Sequence of Ferredoxin-1 (Anabaena sp. (strain PCC 7119)), P0A3C8 E95K;E96K (P0A3C8 whole entry E95K/E96K): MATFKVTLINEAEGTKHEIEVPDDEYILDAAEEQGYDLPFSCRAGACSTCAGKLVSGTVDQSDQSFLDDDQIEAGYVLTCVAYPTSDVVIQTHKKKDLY
# Sequence of Ferredoxin-1 (Anabaena sp. (strain PCC 7119)), P0A3C8 E96K (P0A3C8 whole entry E96K): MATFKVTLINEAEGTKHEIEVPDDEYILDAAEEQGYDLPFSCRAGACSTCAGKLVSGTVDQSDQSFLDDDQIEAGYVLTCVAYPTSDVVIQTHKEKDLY
# Sequence of Ferredoxin-1 (Anabaena sp. (strain PCC 7119)), P0A3C8 E95K (P0A3C8 whole entry E95K): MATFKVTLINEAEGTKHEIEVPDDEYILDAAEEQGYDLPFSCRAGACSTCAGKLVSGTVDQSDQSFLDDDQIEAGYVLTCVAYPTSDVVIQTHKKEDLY
row,Substance,effect of a mutation on the interaction
1,"Ferredoxin-1 (Anabaena sp. (strain PCC 7119)), P0A3C8 E95K",decreasing interaction
2,"Ferredoxin-1 (Anabaena sp. (strain PCC 7119)), P0A3C8 E95K;E96K",decreasing interaction
3,"Ferredoxin-1 (Anabaena sp. (strain PCC 7119)), P0A3C8 E96K",decreasing interaction
